Experimental data: PMC4031500

Biological target: chB6 (Bu-1), chicken B-lymphocyte allotypic marker (chicken (endogenous in DT40))
Assay: non-reducing against reducing SDS-PAGE with Western blot; chB6 immunoprecipitated from DT40 lysate, SDS-PAGE without reducing agent, blot with anti-chB6 peptide antibody; compared with membrane fractions run with 2-mercaptoethanol

chB6 (Bu-1), chicken B-lymphocyte allotypic marker (natural protein)
stoichiometry N: 2
